Experimental findings from FireProtDB (doi:10.1021/bi9901228) are described below.

The conditions of this series: Homo sapiens; pH 2.7; Thermal; DSC; glycine 0.05 M; reversible: yes; whole UniProt chain shown.

For orientation: Tm means the temperature at the midpoint of the melting transition.

B1: Lysozyme C wild type, P61626 (protein)
chain: MKALIVLGLVLLSVTVQGKVFERCELARTLKRLGMDGYRGISLANWMCLAKWESGYNTRATNYNAGDRSTDYGIFQINSRYWCNDGKTPGAVNACHLSCSALLQDNIADAVACAKRVVRDPQGIRAWVAWRNRCQNRDVRQYVQGCGV
In the case of B1, the Tm stood at 64.9 °C, the “heat capacity change of unfolding” value was 1.58 kcal/mol/K and the “unfolding enthalpy (calorimetric)” value is 114 kcal/mol.
